pKd: −log10 of the molar value.
Biological target: recombinant IgI3 domain of the S. pyogenes R28 protein (R28-IgI3), wildtype (S. pyogenes) (UniProt Q9XDB6)
Experiment: ITC; iTC200, 25 °C, 16 injections of 2.42 µl, 30 mM Tris-HCl, 150 mM NaCl, pH 7.5, 750 rpm, in duplicate; 500 µM rCEACAM-N domains in the syringe, 50 µM rR28-IgI3 (methods)

First: rCEACAM1-N N97A (from UniProt P13688 34-141) (domain or fragment)
Second: rCEACAM1-N Q44A (from UniProt P13688 34-141) (domain or fragment)
The pKd of the first is 0.64 log units higher: 6.68 for the first, 6.04 for the second. The first binds more tightly here.

Going from “rCEACAM1-N Q89A (from UniProt P13688 34-141) (domain or fragment)” to “rCEACAM1-N V96A (from UniProt P13688 34-141) (domain or fragment)”, the pKd rises from 6.16 to 6.94 (0.78 log units). The second binds more tightly here.
